The supplement of paper PMC7877785
± gives the uncertainty stated by the source.

Assay: self-splicing fitness, log relative to wild type (ln ratio); higher = more splicing; Tetrahymena group I intron in knt gene, E. coli kanamycin selection, DiMSum; sequences stand for … in CUCUCU…GGAGGGAAAAGUUAUCAGGCAUGCACCUGGUAGCUAGUCUUUAAACCAAUAGAUUGCAUCGGUUUAAAAGGCAAGACCGUCAAAUUGCGGGAAAGGGGUCAACAGCCGUUCAGUACCAAGUCUCAGGGGAAACUUUGAGAUGGCCUUGCAAAGGGUAUGGUAAUAAGCUGACGGACAUGGUCCUAACCACGCAGCCAAGUCCUAAGUCAACAGAUCUUCUGUUGAUAUGGAUGCAGUUCACAGACUAAAUGUCGGUCGGGGAAGAUGUAUUCUUCUCAUAAGAUAUAGUCGGACCUCUCCUUAAUGGGAGCUAGCGGAUGAAGUGAUGCAACACUGGAGCCGCUGGGAACUAAUUUGUAUGCGAAAGUAUAUUGAUUAGUUUUGGAGUACUCGUGGUCG
In short: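 DiMSum derived fitness as the error-weighted combination of fold changes across replicates, kanamycin versus no kanamycin, normalised to wild type. E. coli BL21(DE3) held the library, which randomised all eight P1ex-region intron nucleotides within the knt kanamycin-resistance gene on pET-22b(+). Six replicate transformations grew overnight at 37°C or 30°C on LB agar with or without 25 μg/mL kanamycin, also containing 100 μg/mL carbenicillin, 50 μM IPTG and 0.2% rhamnose, and pooled colonies were amplicon-sequenced on an Illumina HiSeq 2500.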

| Sequence | self-splicing fitness (ln) (30 °C) | self-splicing fitness (ln) (37 °C) |
| --- | --- | --- |
| UCUAAGCAAUAUUACGACCG | -0.676 ± 0.14 | -0.00302 ± 0.22 |
| UCUAAGCAAUAUUACGAGCA | -1.38 ± 0.15 | -0.145 ± 0.15 |
| UCUAAGCAAUAUUACGAGGC | -2.85 ± 0.31 | -2.58 ± 0.38 |
| UCUAAGCAAUAUUACGAUAC | -2.38 ± 0.25 | -2.95 ± 0.47 |
| UCUAAGCAAUAUUACGAUUA | -2.61 ± 0.33 | -1.94 ± 0.34 |
| UCUAAGCAAUAUUACGCAAG | -2.85 ± 0.4 | -1.86 ± 0.34 |
| UCUAAGCAAUAUUACGCACA | -2.26 ± 0.39 | -0.556 ± 0.47 |
| UCUAAGCAAUAUUACGCAGU | -1.86 ± 0.16 | -1.24 ± 0.15 |
| UCUAAGCAAUAUUACGCCCU | -2.09 ± 0.24 | -1.78 ± 0.25 |
| UCUAAGCAAUAUUACGCCGA | -1.12 ± 0.19 | -0.156 ± 0.2 |
| UCUAAGCAAUAUUACGCGGC | – | -1.59 ± 0.36 |
| UCUAAGCAAUAUUACGCUGU | -2.47 ± 0.18 | -2.59 ± 0.21 |
| UCUAAGCAAUAUUACGCUUA | -2.29 ± 0.21 | -1.75 ± 0.29 |
| UCUAAGCAAUAUUACGGACG | -3.16 ± 0.22 | -1.95 ± 0.28 |
| UCUAAGCAAUAUUACGGAUA | -2.97 ± 0.22 | -1.77 ± 0.19 |
| UCUAAGCAAUAUUACGGGCA | -1.42 ± 0.12 | -0.441 ± 0.12 |
| UCUAAGCAAUAUUACGGGUG | -1.54 ± 0.076 | -0.964 ± 0.099 |
| UCUAAGCAAUAUUACGUCGG | 0.0423 ± 0.067 | 0.627 ± 0.078 |
| UCUAAGCAAUAUUACGUGGC | -3.09 ± 0.19 | -3.11 ± 0.34 |
| UCUAAGCAAUAUUACGUUAG | -2.19 ± 0.1 | -1.04 ± 0.1 |
| UCUCAGCAAUAUUACGACAA | -1.98 ± 0.25 | -1.31 ± 0.27 |
| UCUCAGCAAUAUUACGAGAG | -2.76 ± 0.11 | -1.46 ± 0.11 |
| UCUCAGCAAUAUUACGAGUG | -0.746 ± 0.068 | 0.292 ± 0.086 |
| UCUCAGCAAUAUUACGAUAA | -2.15 ± 0.21 | -1.33 ± 0.21 |
| UCUCAGCAAUAUUACGAUAU | -2.12 ± 0.14 | -1.75 ± 0.18 |
| UCUCAGCAAUAUUACGAUCC | – | -1.66 ± 0.37 |

| Sequence | self-splicing fitness (ln) (30 °C) | self-splicing fitness (ln) (37 °C) |
| --- | --- | --- |
| UCUCAGCAAUAUUACGAUGG | -0.935 ± 0.11 | -1 ± 0.14 |
| UCUCAGCAAUAUUACGCACG | -2.2 ± 0.2 | -2.06 ± 0.28 |
| UCUCAGCAAUAUUACGCACU | -0.801 ± 0.13 | -0.465 ± 0.14 |
| UCUCAGCAAUAUUACGCCAG | -1.94 ± 0.25 | -1.2 ± 0.34 |
| UCUCAGCAAUAUUACGCCCA | -0.778 ± 0.12 | -1.88 ± 0.18 |
| UCUCAGCAAUAUUACGCGCU | – | -3.12 ± 0.43 |
| UCUCAGCAAUAUUACGCGGG | -1.7 ± 0.14 | -1.4 ± 0.15 |
| UCUCAGCAAUAUUACGCGUG | -4.26 ± 0.24 | -3.11 ± 0.21 |
| UCUCAGCAAUAUUACGCUAU | -3.62 ± 0.43 | -2.37 ± 0.23 |
| UCUCAGCAAUAUUACGCUCG | -3.93 ± 0.25 | -2 ± 0.19 |
| UCUCAGCAAUAUUACGCUGG | -3.25 ± 0.2 | -2.67 ± 0.2 |
| UCUCAGCAAUAUUACGGAAA | -1.45 ± 0.14 | -0.892 ± 0.14 |
| UCUCAGCAAUAUUACGGACA | -0.71 ± 0.099 | -0.369 ± 0.1 |
| UCUCAGCAAUAUUACGGAUG | -2.78 ± 0.12 | -0.753 ± 0.13 |
| UCUCAGCAAUAUUACGGCAG | -3.36 ± 0.31 | -0.98 ± 0.19 |
| UCUCAGCAAUAUUACGGCGC | -2.56 ± 0.22 | -1.78 ± 0.31 |
| UCUCAGCAAUAUUACGGGUG | -0.627 ± 0.072 | -0.219 ± 0.083 |
| UCUCAGCAAUAUUACGGUCA | 0.115 ± 0.061 | 0.0673 ± 0.075 |
| UCUCAGCAAUAUUACGGUGG | -2.24 ± 0.14 | -2.31 ± 0.18 |
| UCUCAGCAAUAUUACGUAAC | -2.74 ± 0.21 | -2.2 ± 0.28 |
| UCUCAGCAAUAUUACGUAGU | -1.71 ± 0.1 | -0.822 ± 0.11 |
| UCUCAGCAAUAUUACGUAUG | -2.86 ± 0.42 | -2.79 ± 0.38 |
| UCUCAGCAAUAUUACGUUAG | -3.98 ± 0.4 | -2.34 ± 0.27 |
| UCUGAGCAAUAUUACGAAAG | -2.21 ± 0.27 | -1.71 ± 0.27 |
| UCUGAGCAAUAUUACGACCG | -2.92 ± 0.4 | -2.39 ± 0.46 |
| UCUGAGCAAUAUUACGACGG | -1.18 ± 0.11 | -0.451 ± 0.12 |

| Sequence | self-splicing fitness (ln) (30 °C) | self-splicing fitness (ln) (37 °C) |
| --- | --- | --- |
| UCUGAGCAAUAUUACGCAUC | – | -2.47 ± 0.49 |
| UCUGAGCAAUAUUACGCCUA | – | -0.697 ± 0.44 |
| UCUGAGCAAUAUUACGCGGG | -3.91 ± 0.26 | -2.29 ± 0.2 |
| UCUGAGCAAUAUUACGGACU | -2.57 ± 0.39 | -1.21 ± 0.41 |
| UCUGAGCAAUAUUACGGAGA | -2.35 ± 0.17 | -0.963 ± 0.14 |
| UCUGAGCAAUAUUACGGAGC | -2.77 ± 0.21 | -2.92 ± 0.2 |
| UCUGAGCAAUAUUACGGCAC | -4.07 ± 0.47 | -1.06 ± 0.28 |
| UCUGAGCAAUAUUACGGCGG | -0.492 ± 0.094 | -0.249 ± 0.14 |
| UCUGAGCAAUAUUACGGUAC | -3.24 ± 0.47 | – |
| UCUGAGCAAUAUUACGUGAU | -3.42 ± 0.23 | -1.42 ± 0.44 |
| UCUGAGCAAUAUUACGUGCU | -3.52 ± 0.4 | – |
| UCUGAGCAAUAUUACGUUAC | -3.38 ± 0.2 | -2.33 ± 0.22 |
| UCUGAGCAAUAUUACGUUAU | -3.6 ± 0.31 | -3.68 ± 0.42 |
| UCUGAGCAAUAUUACGUUCU | -3.98 ± 0.3 | -2.89 ± 0.31 |
| UCUGAGCAAUAUUACGUUGG | -0.956 ± 0.13 | -0.905 ± 0.15 |
| UCUUAGCAAUAUUACGAAAU | -3.48 ± 0.33 | -3.09 ± 0.35 |
| UCUUAGCAAUAUUACGAAUC | -3.32 ± 0.5 | – |
| UCUUAGCAAUAUUACGAGAG | -2.35 ± 0.26 | -0.861 ± 0.16 |
| UCUUAGCAAUAUUACGAUAU | – | -1.78 ± 0.38 |
| UCUUAGCAAUAUUACGAUCG | -1.44 ± 0.19 | -0.631 ± 0.19 |
| UCUUAGCAAUAUUACGAUCU | -2.59 ± 0.29 | -2.04 ± 0.29 |
| UCUUAGCAAUAUUACGAUGA | -0.467 ± 0.082 | 0.223 ± 0.084 |
| UCUUAGCAAUAUUACGCACC | – | -1.21 ± 0.37 |
| UCUUAGCAAUAUUACGCAGU | -2.76 ± 0.22 | -1.05 ± 0.13 |
| UCUUAGCAAUAUUACGCAUG | -1.98 ± 0.18 | -0.995 ± 0.19 |
| UCUUAGCAAUAUUACGCCGG | -1.85 ± 0.26 | 0.459 ± 0.31 |
